Earlier results on one substance are cited in publication PMC3006222.

For this data set, the target named is Heat-labile enterotoxin B subunit (LTB) (UniProt P0CK94). Put plainly: not stated in this article (acid-induced pentamer disassembly, earlier work). As to conditions: pH 1.9.
UniProt P0CK94, sequence (P0CK94 whole entry): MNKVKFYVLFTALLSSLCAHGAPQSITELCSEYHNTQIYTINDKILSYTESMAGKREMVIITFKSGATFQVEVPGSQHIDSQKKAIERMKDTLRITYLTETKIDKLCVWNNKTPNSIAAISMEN

For Heat-labile enterotoxin B subunit (LTB), the threshold pH for acid disassembly of the pentamer is 1.9 pH.
